Experiments:
[1] = molecular target: Myc-GST融合蛋白(Myc标签与谷胱甘肽融合的蛋白); assay: ELISA on coated Myc-GST (5 μg/mL), anti-His-HRP detection, heat tolerance test at 90℃
[2] = molecular target: Myc-GST融合蛋白(Myc标签与谷胱甘肽融合的蛋白); assay: ELISA on coated Myc-GST (5 μg/mL), anti-His-HRP detection, heat tolerance test at 80℃
[3] = molecular target: Myc-GST融合蛋白(Myc标签与谷胱甘肽融合的蛋白); assay: ELISA on coated Myc-GST (5 μg/mL), anti-His-HRP detection, heat tolerance test at 70℃

B1: 抗c-Myc标签单域重链抗体 (VHH)
VHH: QLQLVESGGGSVQPGGSLTLSCSASGFNISQYSVGWFREAPGEEREGISCLDIDGKITTFSDAIQGRFTIARDNAANMIYLHMDALNPLDTAVYRCVARWDCSRHDFITQKTATGIWGPGTQVTVSA
- OD450 [1]: 1.1 OD450
- OD450 [2]: 1.3 OD450
- OD450 [3]: 1.5 OD450

Source: patent CN106914229A
